The labels stand for the following.
B1: VAL (ED polymerase): 9° N DM derivative with L408V; V409A; P410L (motif A VAL) plus A485L; SEQ ID NO: 18 (protein)
chain: MILDTDYITENGKPVIRVFKKENGEFKIEYDRTFEPYFYALLKDDSAIEDVKKVTAKRHGTVVKVKRAEKVQKKFLGRPIEVWKLYFNHPQDVPAIRDRIRAHPAVVDIYEYDIPFAKRYLIDKGLIPMEGDEELTMLAFAIATLYHEGEEFGTGPILMISYADGSEARVITWKKIDLPYVDVVSTEKEMIKRFLRVVREKDPDVLITYNGDNFDFAYLKKRCEELGIKFTLGRDGSEPKIQRMGDRFAVEVKGRIHFDLYPVIRRTINLPTYTLEAVYEAVFGKPKEKVYAEEIAQAWESGEGLERVARYSMEDAKVTYELGREFFPMEAQLSRLIGQSLWDVSRSSTGNLVEWFLLRKAYKRNELAPNKPDERELARRRGGYAGGYVKEPERGLWDNIVYLDFRSVALSIIITHNVSPDTLNREGCKEYDVAPEVGHKFCKDFPGFIPSLLGDLLEERQKIKRKMKATVDPLEKKLLDYRQRLIKILANSFYGYYGYAKARWYCKECAESVTAWGREYIEMVIRELEEKFGFKVLYADTDGLHATIPGADAETVKKKAKEFLKYINPKLPGLLELEYEGFYVRGFFVTKKKYAVIDEEGKITTRGLEIVRRDWSEIAKETQARVLEAILKHGDVEEAVRIVKEVTEKLSKYEVPPEKLVIHEQITRDLRDYKATGPHVAVAKRLAARGVKIRPGTVISYIVLKGSGRIGDRAIPADEFDPTKHRYDAEYYIENQVLPAVERILKAFGYRKEDLRYQKTKQVGLGAWLKVKGKK
modifications: 9oN polymerase variant (exo-) with L408V/Y409A/P410L and A485L mutations
B2: YAV: 9° N polymerase (exo-) mutant, motif A region YAV, also A485L; SEQ ID NO: 22 (protein)
chain: B1 chain with V408Y, L410V
modifications: 9oN polymerase variant (exo-) with L408Y/Y409A/P410V mutations
B3: 9° N DM: 9° N (-exo) Y409V/A485L double mutant control polymerase; SEQ ID NO: 15 (protein)
chain: B1 chain with V408L, A409V, L410P
modifications: 9oN polymerase (exo-) with Y409V and A485L mutations
B4: FAP: 9° N DM-derived polymerase with amino acids 408-410 FAP (protein, UniProt Q56366 1-775, looked up, variant D141A E143A L408F Y409A A485L)
DNA polymerase: B1 chain with V408F, L410P
B5: CST: 9° N DM-derived polymerase with amino acids 408-410 CST (protein, UniProt Q56366 1-775, looked up, variant D141A E143A L408C Y409S P410T A485L)
DNA polymerase: B1 chain with V408C, A409S, L410T
B6: YST: 9° N DM-derived polymerase with amino acids 408-410 YST (protein, UniProt Q56366 1-775, looked up, variant D141A E143A L408Y Y409S P410T A485L)
DNA polymerase: B1 chain with V408Y, A409S, L410T
B7: FAI: 9° N DM-derived polymerase with amino acids 408-410 FAI (protein, UniProt Q56366 1-775, looked up, variant D141A E143A L408F Y409A P410I A485L)
DNA polymerase: B1 chain with V408F, L410I
B8: CAA: 9° N DM-derived polymerase with amino acids 408-410 CAA (protein, UniProt Q56366 1-775, looked up, variant D141A E143A L408C Y409A P410A A485L)
DNA polymerase: B1 chain with V408C, L410A
B9: AAA: 9° N DM-derived polymerase with amino acids 408-410 AAA (protein, UniProt Q56366 1-775, looked up, variant D141A E143A L408A Y409A P410A A485L)
DNA polymerase: B1 chain with V408A, L410A
B10: YAS: 9° N polymerase mutant, motif A region YAS, also A485L; SEQ ID NO: 20 (protein)
chain: B1 chain with V408Y, L410S
modifications: 9oN polymerase variant (exo-) with L408Y/Y409A/P410S mutations

Substitutions are numbered along the chain they refer to. Names and notes keep the numbering of the source.

One series deals with 3′ modified nucleotide. As to the kind of experiment: Gel-based incorporation assay of Example 2, two cycles of enzymology on bead-bound 32P-labelled DNA template. Type of series: biochemical.
Settings: not given
As to the method: The mutant polymerases were assessed for their ability to incorporate a 3′ blocked nucleotide analogue using a gel-based assay as described in generic form in Example 1. The rates of incorporation of the modified nucleotides were compared to purified forms of related DNA polymerases in both a single round of incorporation and through two rounds of nucleotide incorporation. The DNA template that was used for these experiments was a commercially-synthesised biotinylated oligonucleotide.
The method for two cycles of incorporation involves the binding of the DNA primer-template to streptavidin-coated beads (Dynalbeads). These are prepared as follows: • Resuspend beads in storage pot by pipetting up and down Take 20 μL beads • Wash 3×200 μL TE buffer (10 mM Tris HCl pH 7.5, 1 mM EDTA) Add 50 μL B&W buffer (5 mM Tris HCl, pH 7.5; 1M NaCl, […]) • 25 μL H2O • 25 μL of ^32P-labelled biotin DNA template (final concentration of 100 nM)
The first cycle of enzymatic incorporation is performed on these beads as follows:
Incorporation mix 1 is added to the bead pellet from above.
Reactions are incubated at 45° C. for 15 minutes
The first cycle of enzymology is then deblocked by treatment with tri(carboxyethyl) phosphine (TCEP) as follows:
Add 65 μL TCEP (100 mM) in water and incubate at 65° C. for 15 minutes
After removal of the TE buffer, a second cycle of enzymatic incorporation is then performed by the addition of incorporation mix 2, as follows:
Take 5 μL samples out at ½, 1, 2, 4, 10, 30, 60 mins and add to gel loading buffer with EDTA.
Heat all samples to 95° C. for 10 mins and load 3 μl on a 12% acrylamide gel (Sambrook and Russell, 2001).
Time (mins) to 50% product conversion on second cycle of enzymology at 45° C., 50 mM Tris, pH 8, 4 mM MgSO4, 0.05 (v/v) Tween, 50 μg/ml enzyme, and 2 μM 3′ modified nucleotide. Time to 50% product conversion on first cycle of incorporation shown in parentheses. For other mutants the time to 50% conversion on the first cycle was not measured in these experiments
Turning to B1, the “rate of incorporation of the modified nucleotides compared to the original mutant bearing changes at regions A and B (2E)” value was “enhanced rate of incorporation”.

Still in this series, the particulars now being: 45° C., 50 mM Tris, pH 8, 4 mM MgSO4, 0.05 (v/v) Tween, 50 μg/ml enzyme, 2 μM 3′ modified nucleotide; first cycle (in parentheses).
On to B2, for which the “Time to 50% product conversion on first cycle of incorporation” value (from here on “Time to 50% product conversion”) is “min (5 sec)”.

With B3, the “Time to 50% product conversion” value is recorded as “no product conversion under these”.

As to B1, the “Time to 50% product conversion” value was “min (16 sec)”.

Still in this series, the particulars now being: 45° C., 50 mM Tris, pH 8, 4 mM MgSO4, 0.05 (v/v) Tween, 50 μg/ml enzyme, 2 μM 3′ modified nucleotide; second cycle.
For the molecule B2, the “Time (mins) to 50% product conversion on second cycle of enzymology” value was found to be 1.2 min.

Turning to B4, the “Time (mins) to 50% product conversion on second cycle of enzymology” value was found to be 5.5 min.

For B5, the “Time (mins) to 50% product conversion on second cycle of enzymology” value amounted to 19.5 min.

In the case of B6, the “Time (mins) to 50% product conversion on second cycle of enzymology” value is 2.1 min.

Regarding B3, the “Time (mins) to 50% product conversion on second cycle of enzymology” value is listed as “no product conversion under these”.

For the molecule B7, the “Time (mins) to 50% product conversion on second cycle of enzymology” value is recorded as 2.2 min.

With B8, the “Time (mins) to 50% product conversion on second cycle of enzymology” value came to 15 min.

As for B1, the “Time (mins) to 50% product conversion on second cycle of enzymology” value turned out to be 5.2 min.

Regarding B9, the “Time (mins) to 50% product conversion on second cycle of enzymology” value came out at 6.9 min.

Consider B10, for which the “Time (mins) to 50% product conversion on second cycle of enzymology” value turned out to be 1.5 min.

Staying with this series, now noted: region A variants, conditions of Example 2.
On to B2, for which the “incorporation of 3′ modified nucleotide analogues compared to 9° N DM (Y409V/A485L)” value is reported as “best incorporation rate”.

With B1, the “incorporation of 3′ modified nucleotide analogues compared to 9° N DM (Y409V/A485L)” value was “improved incorporation”.

As to B10, the “incorporation of 3′ modified nucleotide analogues compared to 9° N DM (Y409V/A485L)” value is “best incorporation rate”.

A further series deals with 3′ modified nucleotide. As to the kind of experiment: Single incorporation method (single cycle of nucleotide incorporation, gel read-out). Type of series: biochemical. The note with it: 3′ O-allyl, 3′ S-methyl and 3′ O-azido methyl; single cycle, 45° C., 2 μM nucleotide; FIG. 3. As to the method: In order to determine whether the modified polymerases described in the previous examples have the capability to incorporate different nucleotide analogues that bear large modifications at the 3′ position of the sugar, three different uracil nucleotide analogues (3′ O-allyl, 3′ S-methyl, and 3′ O-azido methyl) were tested for their ability to be incorporated by two different […] (9° N ED variant polymerase, and 9° N YAV variant polymerase), compared to a control polymerase (9° N DM). A single cycle of nucleotide incorporation was performed at different time intervals using a ‘single incorporation’ method described below.
1. In a clean reaction tube, mix the following components: • 100 nM ^32P-labelled duplex DNA substrate • 50 μg/ml isolated DNA polymerase • 50 mM TrisHCl, pH 8 • 0.05% Tween20 • water to 47 μL
2. incubate the mixture at 45° C.
3. Add 4 mM MgSO4 and 2 μM 3′ modified nucleotide to the reaction mixture from 2, such that the total reaction volume is 50 μL
4. at various time intervals remove 5 μL aliquots from the reaction tube and mix with 5 μL gel loading buffer (described in Example 2)
5. Heat samples and load on acrylamide gels as described in Example 2.
To determine if the DNA polymerases described in previous examples were capable of incorporating 3′ modified nucleotide derivatives of A, G, C and T bases, and also of incorporating such nucleotide derivatives further modified by different fluorescent reporter groups, a single incorporation reaction (as described in Example 3) was performed with the following 3′ O-azido methyl nucleotide derivatives: […]
In the case of B2, the “incorporation of uracil nucleotide analogues with different 3′ modifications” value is “incorporated efficiently”.

Regarding B1, the “incorporation of uracil nucleotide analogues with different 3′ modifications” value is given as “incorporated efficiently”.

Staying with this series, now noted: each 3′ O-azido methyl nucleotide derivative of Table IV (A, G, C, T; different dyes); 2 μM nucleotide, within 3 minutes, 45° C.
Consider B1, for which the substrate conversion result is recorded as “greater than 90%”.

The same series, now with this note: first cycle, single cycle experiment, 45° C.
In the case of B2, the “concentration of 3′ blocked nucleotide at which incorporation can be measured (as low as)” value came out at 50 nM.

For the origin of these results see patent US8460910B2 (Illumina Cambridge Limited, priority 2003, dated 2013).
